Among the data in a protein production outcome set (Wang et al. 2014) are protein production values, retold here.

This series is described as follows: label from the status in PepcDB records.
For the sequence “MISTTTVSDLYITFGLIGVFLAGMIAVLYATNRKSDSFSDYAVGGRSYGPWFIAMCYTNSWWPGATFTAFFALSVGGALGFYGMVYATLGVTAMYLMANRAWTWGKRFNLTTQPDLLGMRFNSPVVKRIASIIGIISVFPWVVMGIQALATLFQFASFGRWGVTTCLLVGVAVILIRQYWTVSMGMRGLIMTDMYQGLIAYVLCAALCIFLMFGAQASFSNLSQLPASMLVIPGGTGSTYGPMYMFSLIFTGVIGSMCWPMSFQRIYTASGVRSVKKGTLLTILLVGGFYGILMLFAAAISQDPNVAAHPQHGWFLSLFDIGGPWLLAVAIMIVLAASIGHVDGCVQVCGTQFANDLATWNTPRSDREKTILAKAGMVVFIAAASLLAYLTFDYARLQLLAQISYQGIIQLAVPLFFGVFSRRGNKQGAIVGMLVGIVIAIVLTTIYPDDIPGLGSLTSGIVGLIFNAGIFVACAVAIKPSAEEVRRVDELFAMAAPQRHPAGVAPVMS”, the protein production entry is on record as “failed”. The entry for “VQRPWLAPLPGAPMNACRLLLCFPYGGGGASAFNDLSRLADVGVATWAVKLPGREDRSMEAPVTRVANVIEAIVDALQSVGIPYAFYGHSFGAGLALDVAHALAERDRPLPTHLVLSGRMPPHTGYSPLLGAMDDNQLWQHVCSESLLPLPTDASCSFARHALGKLKADLALNAQLTYRFIRPLPVPLYVLNGQDDPLLELHRLDEWQRYTSTSFHSEYVPGGHFFFNINFQLLYLPLLTALD” is “not failed”.

For the sequence “MIVLALDVYEGERAIKIAKSVKDYISMIKVNWPLILGSGVDIIRRLKEETGVEIIADLKLADIPNTNRLIARKVFGAGADYVIVHTFVGRDSVMAVKELGEIIMVVEMSHPGALEFINPLTDRFIEVANEIEPFGVIAPGTRPERIGYIRDRLKEGIKILAPGIGAQGGKAKDAVKAGADYIIVGRAIYNAPNPREAAKAIYDEIRGV”, the protein production result is listed as “not failed”. The entry for “MFQKIAKECLAGFTVAIVALPLAIAFGIAATGTSEGALVGLYGAIFAGLFAALFGGTPGQVTGPTGPITVIATGVIATHGLEASFIVFMMAGLFQILFGVCKLGSYVRYIPYPVVSGFMNGIALIIILGEMKHVQNSFLLVVLTIIVMIVSGKWIKAIPSSLVALVGVTAMLPLFSSALEGLTVKLPVIGNLSLNKVIEKIGTIPEAMPTLHIPSLSGTGIAELILPALSIALLGSIDSLLTSVVMDNVTGTRHKSNKELVGQGIGNVMSGLFGGLAGAGATVRSIVNIRSGGKTALSASMHSVILFIFIMGLGSVVQYIPLAVLSGILILTGIGMFDWESMKKMHVAPKGDVVVMLVTMIVTVKFDLMIAVAFGIILAFIIYMVKCKERKASIVKEKEAIYKIKGPLSFLTVDRVFYALQDVKSPVVLRMKDTRYMDVSGAMALLNFIEQSGKSGLSVTLEQVPAHIEKILVTMASSEQKDKLLFTEADVMQGNALV” is “failed”; for “MAYTDPAQRNQVTVLQVGYSRQEEGDESAMRANCTCTLVRCRDGTNIIVDTLTAWDGDHLRSLLGQQGLGVDDIHVVVCSHGHSDHIGCNYLFQKARMHLVGACASHHDLYMDHLGSGNPDEQLALDSNAEVVVRRSPGHTLSCVSVLVENSQLGGRVGITGDLFERREDIDDENIWMDAGSENEKVQREERSKMAQLCEFIIPGHGPMFSVTQSMRCKLKEDATSNT” it is “failed”; for “MTKIIKYTNKDNETLYKFRFYAGLDEITGKQRYIRRQGFKSEKDAKTELLKIEYLVSTNQYFKSVKSGKFGDVLDEWLALHKETVKASTWRYIERRVKNHVRPYFKDMYVDKITLRHCQDFTNKAFAAAPVGFTQIISIVKNTLDYALRLGMIESNPMLYVIKPKKQTTISDKHGNYYNKDELKKFLAAAKDTDLKKYTLFRLLAYSGLRVGECLALTWHDLDYKNNTIAINKTYAKTNNGIKIQTPKTKASIRKVSLDVETIQVLKEWQLNQRKQLLKVGINAMNKQQLIFSNNKNSFIANETVRLAIHQIAKKTGIHPITTHGFRHTHATLLFASGMDIKQVQARLGHSNVQTTLNIYTHAIQDKQDKIGDEFAKYINF” it is “failed”. Regarding “METLILTQEEVESLISMDEAMNAVEEAFRLYALGKAQMPPKVYLEFEKGDLRAMPAHLMGYAGLKWVNSHPGNPDKGLPTVMALMILNSPETGFPLAVMDATYTTSLRTGAAGGIAAKYLARKNSSVFGFIGCGTQAYFQLEALRRVFDIGEVKAYDVREKAAKKFVSYCEDRGISASVQPAEEASRCDVLVTTTPSRKPVVKAEWVEEGTHINAIGADGPGKQELDVEILKKAKIVVDDLEQAKHGGEINVAVSKGVIGVEDVHATIGEVIAGLKDGRESDEEITIFDSTGLAIQDVAVAKVVYENALSKNVGSKIKFFRI”, the protein production entry is given as “not failed”. For “MANGRIEKIGQQLTTPSGYQVLDATGKHVTAGIVDEHSHIAINGGTNEGTDAVTAEVRIGDVINPEDVSIYRALAGGVTSAQLLHGSANPIGGQSQLIKMKWGESAEQLKFANAPASIKFALGENVKQSNWGEKFVQRFPQTRMGVKALFEETFDAALAYENALKDYDDLRSSEKKKTLAPRPSYRLQAVAEVLKQQRDVHIHSYVQSEILMFLRLAEAYRFKVQTFTHVLEGYKVASELAAHGAGASTFADWWAYKFEVYDAIPQNACLMQKQGVLTSINSDDYEMQRRLNQEAAKSMMYCGMSKEDAWNMVTIYPAKQLRVDEYVGSLTPGKMADIVLWNAEPLSIYAKVTHAWVEGKRYFDREQDQLAQQQVVTERAALIQKILSSDDNAKAGEKVTPLNEPQWHCDTHYQAWGQHHQGAK” the value was “failed”.

As for “MEEKRLSAKKGLPPGTLVYTGKYREDFEIEVMNYSIEEFREFKTTDVESVLPFRDSSTPTWINITGIHRTDVVQRVGEFFGIHPLVLEDILNVHQRPKVEFFENYVFIVLKMFTYDKNLHELESEQVSLILTKNCVLMFQEKIGDVFDPVRERIRYNRGIIRKKRADYLLYSLIDALVDDYFVLLEKIDDEIDVLEEEVLERPEKETVQRTHQLKRNLVELRKTIWPLREVLSSLYRDVPPLIEKETVPYFRDVYDHTIQIADTVETFRDIVSGLLDVYLSSVSNKTNEVMKVLTIIATIFMPLTFIAGIYGMNFEYMPELRWKWGYPVVLAVMGVIAVIMVVYFKKKKWL”, the protein production entry is reported as “not failed”. For “MVGLLVEDTIDDQGWNRKAYEGLLNIHSNLDVDVVLEEGVNSEQKAHRRIKELVDGGVNLIFGHGHAFAEYFSTIHNQYPDVHFVSFNGEVKGENITSLHFEGYAMGYFGGMVAASMSETHKVGVIAAFPWQPEVEGFVDGAKYMNESEAFVRYVGEWTDADKALELFQELQKEQVDVFYPAGDGYHVPVVEAIKDQGDFAIGYVGDQADLGGSTILTSTVQHVDDLYVLVAKRFQEGKLESGNLYYDFQDGVVSLGEFSSVVPDEVREQITDAISTYIQTGQFPHEEER” the value was “not failed”. Take “MEPNRFGDILAFVSAVKAGSFTSAAATLGVTRSAVGKSVARLEARLGVRLLHRTTRKLNVTGEGLVVFERWSQILEDLEEVDATMAQRRGKPAGILRLTAPLSFGQRHILPILNAYVTNWPEIQADVWFTDHYVDLIEEGIDVAVRIGGVKDDARILSRTIGGQQFVTCAAPGYLAKKGVPSTPADLAGHDTIFFLSGQRPMPWRLGQGDAIEVCDGPGRMNIDSSEALREAALSGFGLIHLPTYITGKDLQRGDLVEVLEAYRPPADPIRLIYPSKRHLSPRTRAFIDLLIERWRDGVPWERLEPAS”: the protein production result is reported as “failed”.

As to “MLAPERIHPALWRATQLAHGPTRKLPTGYADLSAQLPGGGWPLGALVELLLPQPGSGEIRLLRPALAQLEARRAIALVQPPHAPHIASWASWRLDPRQLLWVAPERPADALWAAEQILKAGSCAALLCWLPQVRPESLRRLHLAAQGGDALFVALRPAAAEQHASPAVLRLALAPAPGGLSIRIVKRRGPACEHPVHVGLEAGAGLSVFPAPHAPLDRRLPAQPVAGRRTPALVSLEHHHHHH”, the protein production result is given as “not failed”. For the sequence “MMWESESDGGVGVGGGGGREYGDGVLSSNKHGGVKTDGFELRGQSWFVATDIPSDLLVKIGDMNFHLHKYPLLSRSGKMNRLIYESRDPDPTILILDDLPGGPEAFELASKFCYGVPVDLTATNISGLRCAAEYLEMTEDLEEGNLIFKTEAFLSYVVLSSWRDSILVLKSCEKLSPWAENLQIVRRCSESIAWKACSNPKGIRWAYTGKAPSPSTTNFAGSSPRWNESKDSSFYCSPSRNTNSQPVPPDWWFEDVSILRIDHFVRVITAIKVKGMRFELLGAVIMHYAGKWLPGLIKEGGVAIAPAMSSAIGGGLGLGGDEMSISCGSNSSGGSSGPDWKGGLHMVLSAGKTNGHQDSVACLAGLGISPKDQRMIVESLISIIPPQKDSVTCSFLLRLLRAANMLKVAPALITELEKRVGMQFEQATLQDLLIPGYNNKGETMYDVDLVQRLLEHFLVQEQTEGSSPSRMSPSPSQSMYADIPRGNNNNGGGGGGNNQNAKMRVARLVDSYLTEVARDRNLPLTKFQVLAEALPESARTCDDGLYRAIDSYLKAHPTLSEHERKRLCRVMDCQKLSMDACMHAAQNERLPLRVVVQVLFSEQVKISNALANTSLKESTTLGEAMGTYQPMIPNRKTLIEATPQSFQEGWAAAKKDINTLKFELETVKTKYVELQNEMEVMQRQFEKTGKVKNTPSSSAWTSGWKKLSKLTKMSGQESHDISSGGEQAGVDHPPPRKPRRWRNSIS”, the protein production result is recorded as “failed”. For “MRTLLITGPGGSGRTTVAAATALRASRTGTRTLVLSADRTDTLGAALGVPTGGAPVEAAPGLTAWRPDAADRFRADLTAFQDRAATALDFLGAARLDAEELTPLPGAEELALLRALRDAALSEAYDLLVVDLPPAPQALALLALPEELRRYLRRLLPPERQAARALRPVLGRLAGVPMPADWLYETAARWDVELAAVEAVVEDRATTVRLVAEPGPAGADAVRAAATGFALRAVRIDTLIANRLLPEEADDAWSAGLAAQQRKFLEEWRGEYRLHELPHLGHDPRGADDLAALAVPGVNDAPGPVEWSVADRLADDGVLVWHIPLPGAIRDELDLLRRGDELVVTAGQFRRIVPLPSALRRCTVAGAALREGELRIRFAPDPDLWPRERLEHHHHHH”, the protein production result is “not failed”. Take “MAEGSSLALPRVSASLHEPARAFSFRLDEGKSPWVEVVITIGSFPRCPEVTMMWPPPPTFSVFLLLLLSQVPSSRPQSPGTKKLRLVGPANRPEEGRLEVLHQGQWGTVCDDDFALQEATVACRQLGFESALTWAHSAKFGQGEGPIWLDNVRCLGTEDTLDQCGSNGWGVSDCRHSEDVGVVCHPRRQQGYHSEKVSNALGPQGRRLEEVRLKPILASAKRHSPVTEGAVEVRYEGHWRQVCDQGWTMNNSRVVCGMLGFPSQAPVNSHYYRKVWNLKMKDPKSRLNGLTKKNSFWIHRVDCLGTEPHLAKCQVQVAPGRGKLRPACPGGMHAVVNCVAGPHFQRQKPKPKRKESGAEELKVRLRSGAQVGEGRVEVLMNRQWGTVCDHRWNLISASVVCRQLGFGSAREALFGAQLGQGLGPIHLSEVRCRGYEQTIGDCLALEGSQNGCQHANDAAVRCNIPDMGFQNKVRLAGGRNSEEGVVEVQVEVNGVPRWGTVCSDHWGLTEAMVTCRQLGLGFANFAIKDTWYWQGTPEAKEVVMSGVRCSGTEMALQQCQRHGPVHCSHGSGRFSAGVACMNSAPDLVMNAQLVQETAYLEDRPLSMLYCAHEENCLSKSADHMDWPYGHRRLLRFSSQIYNLGRADFRPKAGRHSWIWHQCHRHYHSIEVFTHYDLLTLNGSKVAEGHKASFCLEDTNCPSGVQRRYACANFGEQGVAVGCWDTYRHDIDCQWVDITDVSPGDYIFQVVVNPTNDVAESDFSNNMIRCRCKYDGQRVWLHNCHTGDPYRPNAELSLEQEQRLRNNLI”: the protein production result is recorded as “failed”. Take “FYTNRTVVKLMTMIMAPQPGESVYDPTCGSGGLLLNCALHLKDEGKEYRTLKLYGQEINLLTSAIARMNMFMHGIEEFDIVRGNTLSNPGLLENDELKKFNVILANPPYSIKSWDRKAFESDPYGRNVWGTPPQGCADYAFQQHIQKSLDLGNGRSISLWPHGILFRDAETAMRRKMIEQDQVECVIGLGPNLFYNSPMEACLLITKTNKIESKKDKILFINAVKEVRQDKNIGYLDQVHIDKIFNAYNKFENED”: the protein production entry is “failed”.
